This note sets out measurements from US20200046770A1.

For this experiment, the target named is PDGF-DD (active, proteolytically processed homodimer) as used in solid-phase binding and SPR (human) (UniProt Q9GZP0). Kind of experiment: SPR (Biacore T100), PDGF-DD immobilised on CM5 chip, NKp44 18-130-His6 in the mobile phase, steady-state fit for a 1:1 interaction. (In general: Surface plasmon resonance follows binding to a sensor surface in real time, without labels.)
PDGF-DD (active, proteolytically processed homodimer) as used in solid-phase binding and SPR (human), sequence (Q9GZP0 184-370 limits assumed, form in doubt): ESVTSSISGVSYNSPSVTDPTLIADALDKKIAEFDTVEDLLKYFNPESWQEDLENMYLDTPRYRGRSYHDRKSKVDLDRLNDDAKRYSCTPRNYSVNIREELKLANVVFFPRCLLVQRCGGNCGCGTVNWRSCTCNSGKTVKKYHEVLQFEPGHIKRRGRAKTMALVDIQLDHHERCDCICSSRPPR

By Kd is commonly meant the concentration at which binding is half-saturated. The low end stands for a tighter complex, the high end for a looser complex. In turn, “Bacterial expressed NKp44 (residues 18-130 with a C-terminal His6 tag) (from UniProt O95944 18-130) (receptor)” registered a Kd of 3.3 µM. That is a single-digit micromolar value.
